Measured values published in patent US20220227830A1, “QD DOSING OF GIP RECEPTOR AGONIST PEPTIDE COMPOUNDS AND USES THEREOF” (Takeda Pharmaceutical Company Limited, priority 2020, published 2022).
Starred links: 1 amine or outer side, 2 acyl side, 3 side chain; linkers in the order of their positions; H or OH if unused. Non-standard residues stand in square brackets, D forms with d. Groups on a side chain read outwards from the residue. No end group written: not given here. *: point of attachment. C15 diacid = O=C(O)CCCCCCCCCCCCCC(=O)*; γGlu = O=C(O)[C@H](CCC(=O)[*:2])N[*:1]; NMeY = CN[C@@H](Cc1ccc(O)cc1)C(=O)O; AEEA = NCCOCCOCC(=O)O; Aib = CC(C)(N)C(=O)O

T1: full-length human GIPR with an N-terminal FLAG tag (human, UniProt P48546 22-466)
T1 sequence (looked up): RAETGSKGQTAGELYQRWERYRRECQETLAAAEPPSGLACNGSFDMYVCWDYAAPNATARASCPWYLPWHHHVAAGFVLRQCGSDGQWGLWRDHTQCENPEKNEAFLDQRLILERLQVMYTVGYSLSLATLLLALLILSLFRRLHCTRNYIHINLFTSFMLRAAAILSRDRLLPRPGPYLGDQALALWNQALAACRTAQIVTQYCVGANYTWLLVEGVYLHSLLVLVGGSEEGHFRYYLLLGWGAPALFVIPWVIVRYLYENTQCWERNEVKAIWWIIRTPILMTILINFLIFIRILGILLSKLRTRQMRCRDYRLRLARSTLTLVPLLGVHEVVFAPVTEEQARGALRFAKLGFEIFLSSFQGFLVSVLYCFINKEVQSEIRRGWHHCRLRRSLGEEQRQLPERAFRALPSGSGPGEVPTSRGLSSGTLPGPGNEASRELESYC

B1: Compound 127 (peptide)
peptide: [NMeY][Aib]EGTFISDYSIALDRK([AEEA-AEEA-γGlu-C15 diacid])AQ[Aib]NFVNWLLAQSPSSGAPPPS-NH2
modifications: N-terminus assumed
SMILES: CC[C@H](C)[C@H](NC(=O)[C@H](CO)NC(=O)[C@H](Cc1ccc(O)cc1)NC(=O)[C@H](CC(=O)O)NC(=O)[C@H](CO)NC(=O)[C@@H](NC(=O)[C@H](Cc1ccccc1)NC(=O)[C@@H](NC(=O)CNC(=O)[C@H](CCC(=O)O)NC(=O)C(C)(C)NC(=O)[C@H](Cc1ccc(O)cc1)NC)[C@@H](C)O)[C@@H](C)CC)C(=O)N[C@@H](C)C(=O)N[C@@H](CC(C)C)C(=O)N[C@@H](CC(=O)O)C(=O)N[C@@H](CCCNC(=N)N)C(=O)N[C@@H](CCCCNC(=O)COCCOCCNC(=O)COCCOCCNC(=O)CC[C@H](NC(=O)CCCCCCCCCCCCCC(=O)O)C(=O)O)C(=O)N[C@@H](C)C(=O)N[C@@H](CCC(N)=O)C(=O)NC(C)(C)C(=O)N[C@@H](CC(N)=O)C(=O)N[C@@H](Cc1ccccc1)C(=O)N[C@H](C(=O)N[C@@H](CC(N)=O)C(=O)N[C@@H](Cc1c[nH]c2ccccc12)C(=O)N[C@@H](CC(C)C)C(=O)N[C@@H](CC(C)C)C(=O)N[C@@H](C)C(=O)N[C@@H](CCC(N)=O)C(=O)N[C@@H](CO)C(=O)N1CCC[C@H]1C(=O)N[C@@H](CO)C(=O)N[C@@H](CO)C(=O)NCC(=O)N[C@@H](C)C(=O)N1CCC[C@H]1C(=O)N1CCC[C@H]1C(=O)N1CCC[C@H]1C(=O)N[C@@H](CO)C(N)=O)C(C)C
B2: Compound 126 (peptide)
peptide: [NMeY][Aib]EGTFISDYSIAK([Gly-Gly-Gly-Gly-Gly-γGlu-C15 diacid])DR[Aib]AQ[Aib]DFVNWLLAQRPSSGAPPPS-NH2
modifications: N-terminus assumed
SMILES: CC[C@H](C)[C@H](NC(=O)[C@H](CO)NC(=O)[C@H](Cc1ccc(O)cc1)NC(=O)[C@H](CC(=O)O)NC(=O)[C@H](CO)NC(=O)[C@@H](NC(=O)[C@H](Cc1ccccc1)NC(=O)[C@@H](NC(=O)CNC(=O)[C@H](CCC(=O)O)NC(=O)C(C)(C)NC(=O)[C@H](Cc1ccc(O)cc1)NC)[C@@H](C)O)[C@@H](C)CC)C(=O)N[C@@H](C)C(=O)N[C@@H](CCCCNC(=O)CNC(=O)CNC(=O)CNC(=O)CNC(=O)CNC(=O)CC[C@H](NC(=O)CCCCCCCCCCCCCC(=O)O)C(=O)O)C(=O)N[C@@H](CC(=O)O)C(=O)N[C@@H](CCCNC(=N)N)C(=O)NC(C)(C)C(=O)N[C@@H](C)C(=O)N[C@@H](CCC(N)=O)C(=O)NC(C)(C)C(=O)N[C@@H](CC(=O)O)C(=O)N[C@@H](Cc1ccccc1)C(=O)N[C@H](C(=O)N[C@@H](CC(N)=O)C(=O)N[C@@H](Cc1c[nH]c2ccccc12)C(=O)N[C@@H](CC(C)C)C(=O)N[C@@H](CC(C)C)C(=O)N[C@@H](C)C(=O)N[C@@H](CCC(N)=O)C(=O)N[C@@H](CCCNC(=N)N)C(=O)N1CCC[C@H]1C(=O)N[C@@H](CO)C(=O)N[C@@H](CO)C(=O)NCC(=O)N[C@@H](C)C(=O)N1CCC[C@H]1C(=O)N1CCC[C@H]1C(=O)N1CCC[C@H]1C(=O)N[C@@H](CO)C(N)=O)C(C)C
B3: Compound 124 (peptide)
peptide: [NMeY][Aib]EGTFISDYSI[Aib]KDR[Aib]AQ[Aib]NFVNWLLAQRPSSKKKKKK-NH2
modifications: not fully specified (residue 14, N-terminus)
B4: Compound 128 (peptide)
peptide: [NMeY][Aib]EGTFISDYSI[Aib]K([AEEA-AEEA-γGlu-C15 diacid])DR[Aib]AQ[Aib]DFVNWLLAQRPSSGAPPPS-NH2
modifications: N-terminus assumed
SMILES: CC[C@H](C)[C@H](NC(=O)[C@H](Cc1ccccc1)NC(=O)[C@@H](NC(=O)CNC(=O)[C@H](CCC(=O)O)NC(=O)C(C)(C)NC(=O)[C@H](Cc1ccc(O)cc1)NC)[C@@H](C)O)C(=O)N[C@@H](CO)C(=O)N[C@@H](CC(=O)O)C(=O)N[C@@H](Cc1ccc(O)cc1)C(=O)N[C@@H](CO)C(=O)N[C@H](C(=O)NC(C)(C)C(=O)N[C@@H](CCCCNC(=O)COCCOCCNC(=O)COCCOCCNC(=O)CC[C@H](NC(=O)CCCCCCCCCCCCCC(=O)O)C(=O)O)C(=O)N[C@@H](CC(=O)O)C(=O)N[C@@H](CCCNC(=N)N)C(=O)NC(C)(C)C(=O)N[C@@H](C)C(=O)N[C@@H](CCC(N)=O)C(=O)NC(C)(C)C(=O)N[C@@H](CC(=O)O)C(=O)N[C@@H](Cc1ccccc1)C(=O)N[C@H](C(=O)N[C@@H](CC(N)=O)C(=O)N[C@@H](Cc1c[nH]c2ccccc12)C(=O)N[C@@H](CC(C)C)C(=O)N[C@@H](CC(C)C)C(=O)N[C@@H](C)C(=O)N[C@@H](CCC(N)=O)C(=O)N[C@@H](CCCNC(=N)N)C(=O)N1CCC[C@H]1C(=O)N[C@@H](CO)C(=O)N[C@@H](CO)C(=O)NCC(=O)N[C@@H](C)C(=O)N1CCC[C@H]1C(=O)N1CCC[C@H]1C(=O)N1CCC[C@H]1C(=O)N[C@@H](CO)C(N)=O)C(C)C)[C@@H](C)CC
B5: Compound 125 (peptide)
peptide: [NMeY][Aib]EGTFISDYSIAK([Gly-Gly-Gly-Gly-Gly-γGlu-C15 diacid])DR[Aib]AQ[Aib]NFVNWLLAQSPSSGAPPPS-NH2
modifications: N-terminus assumed
SMILES: CC[C@H](C)[C@H](NC(=O)[C@H](CO)NC(=O)[C@H](Cc1ccc(O)cc1)NC(=O)[C@H](CC(=O)O)NC(=O)[C@H](CO)NC(=O)[C@@H](NC(=O)[C@H](Cc1ccccc1)NC(=O)[C@@H](NC(=O)CNC(=O)[C@H](CCC(=O)O)NC(=O)C(C)(C)NC(=O)[C@H](Cc1ccc(O)cc1)NC)[C@@H](C)O)[C@@H](C)CC)C(=O)N[C@@H](C)C(=O)N[C@@H](CCCCNC(=O)CNC(=O)CNC(=O)CNC(=O)CNC(=O)CNC(=O)CC[C@H](NC(=O)CCCCCCCCCCCCCC(=O)O)C(=O)O)C(=O)N[C@@H](CC(=O)O)C(=O)N[C@@H](CCCNC(=N)N)C(=O)NC(C)(C)C(=O)N[C@@H](C)C(=O)N[C@@H](CCC(N)=O)C(=O)NC(C)(C)C(=O)N[C@@H](CC(N)=O)C(=O)N[C@@H](Cc1ccccc1)C(=O)N[C@H](C(=O)N[C@@H](CC(N)=O)C(=O)N[C@@H](Cc1c[nH]c2ccccc12)C(=O)N[C@@H](CC(C)C)C(=O)N[C@@H](CC(C)C)C(=O)N[C@@H](C)C(=O)N[C@@H](CCC(N)=O)C(=O)N[C@@H](CO)C(=O)N1CCC[C@H]1C(=O)N[C@@H](CO)C(=O)N[C@@H](CO)C(=O)NCC(=O)N[C@@H](C)C(=O)N1CCC[C@H]1C(=O)N1CCC[C@H]1C(=O)N1CCC[C@H]1C(=O)N[C@@H](CO)C(N)=O)C(C)C
B6: Compound 122 (peptide)
peptide: [NMeY][Aib]EGTFISDYSI[Aib]LDRKAQ[Aib]NFVNWLLAQRPSSGAPPPS-NH2
modifications: not fully specified (residue 17)
B7: Compound 123 (peptide)
peptide: [NMeY][Aib]EGTFISDYSI[Aib]LDR[Aib]AQ[Aib]NFVNWLLAQKPSSGAPPPS-NH2
modifications: not fully specified (residue 30)

Target: T1, full-length human GIPR with an …
Assay: cell-based or functional assay

First: B1
Second: B2
The “Human GIPR cAMP, HEK293T EC50” value of the first is 2.5-fold higher: 0.0005 nM for the first, 0.0002 nM for the second.

Going from B3 to B4, the “Human GIPR cAMP, HEK293T EC50” value falls from 0.004 nM to 0.0004 nM (10-fold).

Going from B5 to B6, the “Human GIPR cAMP, HEK293T EC50” value rises from 0.0002 nM to 0.0004 nM (2-fold).

B7 was tested, and the “Human GIPR cAMP, HEK293T EC50” value was 0.0004 nM.

Target: full-length human GLP-1R with an N-terminal FLAG tag (human, UniProt P43220 24-463)
Assay: cell-based or functional assay

Compared with B1, B2 is 8.9-fold higher in “Human GLP1R cAMP HEK293T EC50” value: 66.1 nM for the first, 589 nM for the second.

First: B3
Second: B4
The “Human GLP1R cAMP HEK293T EC50” value of the first is 3.6-fold lower: 126 nM for the first, 457 nM for the second.

First: B5
Second: B6
The “Human GLP1R cAMP HEK293T EC50” value of the first is 8.1-fold higher: 166 nM for the first, 20.4 nM for the second.

With B7 the “Human GLP1R cAMP HEK293T EC50” value was 22.9 nM.
